Among the data in patent US6835824 are IC50 values, retold here.

The assay has as its target nine-person peanut-specific IgE antibody pool (pooled serum of patients with AD and positive peanut challenge). Briefly: IgE ELISA inhibition, crude peanut coated, pooled serum.

B1: Ara h I, 63.5 kD peanut allergen, native, purified from Florunner peanut extract (protein, Arachis hypogaea, UniProt P43238 85-626, looked up)
chain: RSPPGERTRGRQPGDYDDDRRQPRREEGGRWGPAGPREREREEDWRQPREDWRRPSHQQPRKIRPEGREGEQEWGTPGSHVREETSRNNPFYFPSRRFSTRYGNQNGRIRVLQRFDQRSRQFQNLQNHRIVQIEAKPNTLVLPKHADADNILVIQQGQATVTVANGNNRKSFNLDEGHALRIPSGFISYILNRHDNQNLRVAKISMPVNTPGQFEDFFPASSRDQSSYLQGFSRNTLEAAFNAEFNEIRRVLLEENAGGEQEERGQRRWSTRSSENNEGVIVKVSKEHVEELTKHAKSVSKKGSEEEGDITNPINLREGEPDLSNNFGKLFEVKPDKKNPQLQDLDMMLTCVEIKEGALMLPHFNSKAMVIVVVNKGTGNLELVAVRKEQQQRGRREEEEDEDEEEEGSNREVRRYTARLKEGDVFIMPAAHPVAINASSELHLLGFGINAENNHRIFLAGDKDNVIDQIEKQAKDLAFPGSGEQVEKLIKNQKESHFVSARPQSQSQSPSSPEKESPEKEDQEEENQGGKGPLLSILKAFN
modifications: glycoprotein
A word on the IC50: it is the midpoint of a concentration-inhibition curve. A higher IC50 goes with lower potency. On to B1, for which the IC50 turned out to be 5.5 ng/mL.
